Experimental findings from the supplement of paper PMC7877785 are described below.

The series can be described thus: self-splicing fitness, log relative to wild type (ln ratio); higher = more splicing; Tetrahymena group I intron in knt gene, E. coli kanamycin selection, DiMSum; sequences stand for … in CUCUCU…GGAGGGAAAAGUUAUCAGGCAUGCACCUGGUAGCUAGUCUUUAAACCAAUAGAUUGCAUCGGUUUAAAAGGCAAGACCGUCAAAUUGCGGGAAAGGGGUCAACAGCCGUUCAGUACCAAGUCUCAGGGGAAACUUUGAGAUGGCCUUGCAAAGGGUAUGGUAAUAAGCUGACGGACAUGGUCCUAACCACGCAGCCAAGUCCUAAGUCAACAGAUCUUCUGUUGAUAUGGAUGCAGUUCACAGACUAAAUGUCGGUCGGGGAAGAUGUAUUCUUCUCAUAAGAUAUAGUCGGACCUCUCCUUAAUGGGAGCUAGCGGAUGAAGUGAUGCAACACUGGAGCCGCUGGGAACUAAUUUGUAUGCGAAAGUAUAUUGAUUAGUUUUGGAGUACUCGUGGUCG
In outline: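 The eight P1ex-region nucleotides of an intron in the knt kanamycin-resistance gene on pET-22b(+) were all randomised and the library put into E. coli BL21(DE3). Six replicate transformations were grown overnight at 37°C or 30°C on LB agar with or without 25 μg/mL kanamycin, together with 100 μg/mL carbenicillin, 50 μM IPTG and 0.2% rhamnose. Colonies were pooled and amplicon-sequenced on an Illumina HiSeq 2500. Fitness from DiMSum is the error-weighted combination of wild-type-normalised replicate fold changes, kanamycin over none.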

± gives the uncertainty stated by the source.

For UGCAAGCAAUAUUACGACGC, the “self-splicing fitness (ln)” value (30 °C) is -1.44 ± 0.4 and the “self-splicing fitness (ln)” value (37 °C) is -0.865 ± 0.24.
Consider UGCAAGCAAUAUUACGACUA, for which the “self-splicing fitness (ln)” value stood at 0.0901 ± 0.093 (30 °C) and 0.525 ± 0.11 (37 °C).
Regarding UGCAAGCAAUAUUACGAGUA, the “self-splicing fitness (ln)” value reads like this: (30 °C) -0.888 ± 0.083; (37 °C) 0.181 ± 0.083.
Turning to UGCAAGCAAUAUUACGAUGA, the “self-splicing fitness (ln)” value was -0.161 ± 0.093 (30 °C) and 0.0415 ± 0.097 (37 °C).
On the same counts, the results for UGCAAGCAAUAUUACGCACC are -1.89 ± 0.24 and -1.25 ± 0.32.
For UGCAAGCAAUAUUACGCAUA, the “self-splicing fitness (ln)” value reads like this: (30 °C) -2.59 ± 0.2; (37 °C) -2.33 ± 0.2.
On the same counts, the results for UGCAAGCAAUAUUACGCCCC are -0.548 ± 0.19 and -0.556 ± 0.32.
On the same counts, the results for UGCAAGCAAUAUUACGCGGG are -3.73 ± 0.27 and -2.42 ± 0.22.
For the sequence UGCAAGCAAUAUUACGCGUA, the “self-splicing fitness (ln)” value runs as follows: (30 °C) -1.45 ± 0.18; (37 °C) -1.57 ± 0.17.
The matching figures for UGCAAGCAAUAUUACGCUUC: -3.15 ± 0.24 and -3.33 ± 0.32.
On the same counts, the results for UGCAAGCAAUAUUACGGAAU are -2.88 ± 0.19 and -2.45 ± 0.2.
On the same counts, the results for UGCAAGCAAUAUUACGGAUC are -3.09 ± 0.17 and -2.38 ± 0.16.
For UGCAAGCAAUAUUACGGGCA, the “self-splicing fitness (ln)” value reads like this: (30 °C) -1.4 ± 0.11; (37 °C) -0.815 ± 0.096.
Take UGCAAGCAAUAUUACGGGCG: the “self-splicing fitness (ln)” value is, setting by setting: (30 °C) -1.41 ± 0.087; (37 °C) -0.699 ± 0.1.
As for UGCAAGCAAUAUUACGGGUC, the “self-splicing fitness (ln)” value was -3.11 ± 0.24 (30 °C) and -2.11 ± 0.21 (37 °C).
On the same counts, the results for UGCAAGCAAUAUUACGGUUC are -2.93 ± 0.19 and -1.92 ± 0.17.
The matching figures for UGCAAGCAAUAUUACGUAGC: -3.54 ± 0.37 and -2.48 ± 0.41.
For the sequence UGCAAGCAAUAUUACGUAUG, the “self-splicing fitness (ln)” value (30 °C) was -3.05 ± 0.16 and the “self-splicing fitness (ln)” value (37 °C) was -0.321 ± 0.1.
The matching figures for UGCAAGCAAUAUUACGUCAA: -2.14 ± 0.098 and -0.795 ± 0.073.
On the same counts, the results for UGCAAGCAAUAUUACGUCUA are -0.304 ± 0.047 and 0.371 ± 0.062.
UGCAAGCAAUAUUACGUUAG: the “self-splicing fitness (ln)” value is -2.79 ± 0.14 (30 °C) and -2.02 ± 0.15 (37 °C).
The matching figures for UGCCAGCAAUAUUACGACAC: -2.55 ± 0.35 and -2.68 ± 0.38.
The matching figures for UGCCAGCAAUAUUACGAGAU: -3.75 ± 0.26 and -2.32 ± 0.21.
Turning to UGCCAGCAAUAUUACGAGUG, the “self-splicing fitness (ln)” value was -1.32 ± 0.064 (30 °C) and -0.537 ± 0.079 (37 °C).
The matching figures for UGCCAGCAAUAUUACGAUAA: -1.88 ± 0.14 and -1.19 ± 0.15.
As to UGCCAGCAAUAUUACGCAAU, the “self-splicing fitness (ln)” value runs as follows: (30 °C) -4.51 ± 0.2; (37 °C) -2.59 ± 0.13.
The matching figures for UGCCAGCAAUAUUACGCACC: -2.19 ± 0.28 and -1.32 ± 0.35.
As for UGCCAGCAAUAUUACGCAGC, the “self-splicing fitness (ln)” value (37 °C) was -2.15 ± 0.42.
As to UGCCAGCAAUAUUACGCGUG, the “self-splicing fitness (ln)” value reads like this: (30 °C) -1.71 ± 0.086; (37 °C) -0.381 ± 0.089.
Consider UGCCAGCAAUAUUACGCUGC, for which the “self-splicing fitness (ln)” value is -3.85 ± 0.31 (30 °C) and -2.47 ± 0.28 (37 °C).
On to UGCCAGCAAUAUUACGCUGG, for which the “self-splicing fitness (ln)” value was -3.35 ± 0.24 (30 °C) and -2.63 ± 0.28 (37 °C).
On to UGCCAGCAAUAUUACGCUUA, for which the “self-splicing fitness (ln)” value is, setting by setting: (30 °C) -0.602 ± 0.063; (37 °C) 0.791 ± 0.084.
The matching figures for UGCCAGCAAUAUUACGGCAG: -2.25 ± 0.093 and -1.15 ± 0.1.
For UGCCAGCAAUAUUACGGCUC, the “self-splicing fitness (ln)” value reads like this: (30 °C) -2.89 ± 0.21; (37 °C) -1.48 ± 0.23.
In the case of UGCCAGCAAUAUUACGGGAC, the “self-splicing fitness (ln)” value by setting is: (30 °C) -3.51 ± 0.34; (37 °C) -1.95 ± 0.3.
With UGCCAGCAAUAUUACGGGAU, the “self-splicing fitness (ln)” value (30 °C) is -3.16 ± 0.13 and the “self-splicing fitness (ln)” value (37 °C) was -2.44 ± 0.18.
As for UGCCAGCAAUAUUACGGGCA, the “self-splicing fitness (ln)” value runs as follows: (30 °C) -3.85 ± 0.27; (37 °C) -2.48 ± 0.24.
For the sequence UGCCAGCAAUAUUACGGGGU, the “self-splicing fitness (ln)” value is -3.57 ± 0.21 (30 °C) and -2.48 ± 0.2 (37 °C).
On the same counts, the results for UGCCAGCAAUAUUACGUAAU are -2.36 ± 0.14 and -2.16 ± 0.18.
With UGCCAGCAAUAUUACGUAUC, the “self-splicing fitness (ln)” value by setting is: (30 °C) -3.22 ± 0.19; (37 °C) -3.05 ± 0.28.
On the same counts, the results for UGCCAGCAAUAUUACGUCGU are -2.68 ± 0.14 and -1.9 ± 0.15.
The matching figures for UGCCAGCAAUAUUACGUGUA: -1.26 ± 0.058 and -0.551 ± 0.059.
UGCCAGCAAUAUUACGUUCU: the “self-splicing fitness (ln)” value was -2.37 ± 0.17 (30 °C) and -1.23 ± 0.14 (37 °C).
On to UGCCAGCAAUAUUACGUUUA, for which the “self-splicing fitness (ln)” value (30 °C) was -2.56 ± 0.086 and the “self-splicing fitness (ln)” value (37 °C) is -1.51 ± 0.072.
On the same counts, the results for UGCGAGCAAUAUUACGAAAU are -2.85 ± 0.18 and -2.65 ± 0.38.
On to UGCGAGCAAUAUUACGAACG, for which the “self-splicing fitness (ln)” value (30 °C) was -1.07 ± 0.14 and the “self-splicing fitness (ln)” value (37 °C) was -1.05 ± 0.16.
Regarding UGCGAGCAAUAUUACGAAGC, where the note is “37 °C”, the “self-splicing fitness (ln)” value is -2.3 ± 0.42.
Same read-out and setting: for UGCGAGCAAUAUUACGAUAU the value was -2.61 ± 0.36.
As for UGCGAGCAAUAUUACGAUCA, the “self-splicing fitness (ln)” value was determined as 0.0986 ± 0.13 (30 °C) and 0.104 ± 0.14 (37 °C).
On the same counts, the results for UGCGAGCAAUAUUACGAUCG are -2.97 ± 0.27 and -1.38 ± 0.17.
For the sequence UGCGAGCAAUAUUACGAUUC, the “self-splicing fitness (ln)” value (30 °C) was -2.7 ± 0.23.
Take UGCGAGCAAUAUUACGCACA: the “self-splicing fitness (ln)” value (30 °C) is -1.31 ± 0.22 and the “self-splicing fitness (ln)” value (37 °C) was -2.16 ± 0.28.
As to UGCGAGCAAUAUUACGCAGC, the “self-splicing fitness (ln)” value (37 °C) is -1.49 ± 0.37.
Turning to UGCGAGCAAUAUUACGCAUA, the “self-splicing fitness (ln)” value is -3.48 ± 0.43 (30 °C) and -3 ± 0.36 (37 °C).
Turning to UGCGAGCAAUAUUACGCCAG, the “self-splicing fitness (ln)” value (30 °C) was -4.1 ± 0.42.
UGCGAGCAAUAUUACGCCUU: the “self-splicing fitness (ln)” value (37 °C) is -1.7 ± 0.38.
Turning to UGCGAGCAAUAUUACGCGAA, the “self-splicing fitness (ln)” value (30 °C) was -3.08 ± 0.19 and the “self-splicing fitness (ln)” value (37 °C) was -2.19 ± 0.19.
On the same counts, the results for UGCGAGCAAUAUUACGCGGA are -2.41 ± 0.28 and -2.09 ± 0.31.
On the same counts, the results for UGCGAGCAAUAUUACGCGUA are -4.01 ± 0.32 and -1.6 ± 0.14.
On to UGCGAGCAAUAUUACGCUAU, for which, where the note is “37 °C”, the “self-splicing fitness (ln)” value was -2.46 ± 0.38.
For UGCGAGCAAUAUUACGCUUG, the “self-splicing fitness (ln)” value runs as follows: (30 °C) -3.11 ± 0.37; (37 °C) -2.05 ± 0.3.
On to UGCGAGCAAUAUUACGGCCA, for which the “self-splicing fitness (ln)” value is, setting by setting: (30 °C) -0.517 ± 0.13; (37 °C) 0.5 ± 0.15.
As for UGCGAGCAAUAUUACGGGCU, for the setting “30 °C”, the “self-splicing fitness (ln)” value is -2.97 ± 0.25.
On to UGCGAGCAAUAUUACGGGUU, for which the “self-splicing fitness (ln)” value reads like this: (30 °C) -3.38 ± 0.16; (37 °C) -2.51 ± 0.16.
For UGCGAGCAAUAUUACGUAAG, the “self-splicing fitness (ln)” value was -3.72 ± 0.26 (30 °C) and -2.34 ± 0.28 (37 °C).
On the same counts, the results for UGCGAGCAAUAUUACGUAAU are -2.35 ± 0.22 and -1.91 ± 0.24.
On to UGCGAGCAAUAUUACGUCCG, for which the “self-splicing fitness (ln)” value (30 °C) is -3.31 ± 0.4 and the “self-splicing fitness (ln)” value (37 °C) is -0.194 ± 0.31.
On the same counts, the results for UGCGAGCAAUAUUACGUCCU are -2.35 ± 0.14 and -0.627 ± 0.15.
With UGCGAGCAAUAUUACGUGCC, the “self-splicing fitness (ln)” value was -3.9 ± 0.47 (30 °C) and -2.55 ± 0.33 (37 °C).
Take UGCGAGCAAUAUUACGUGCU: the “self-splicing fitness (ln)” value (37 °C) was -1.79 ± 0.32.
For the sequence UGCGAGCAAUAUUACGUGGA, the “self-splicing fitness (ln)” value is, setting by setting: (30 °C) -3.04 ± 0.23; (37 °C) -3.49 ± 0.33.
As for UGCGAGCAAUAUUACGUUAA, the “self-splicing fitness (ln)” value (30 °C) is -2.48 ± 0.29 and the “self-splicing fitness (ln)” value (37 °C) was -2.45 ± 0.31.
The matching figures for UGCGAGCAAUAUUACGUUCC: -2.19 ± 0.18 and -2.66 ± 0.34.
On the same counts, the results for UGCGAGCAAUAUUACGUUGA are -3.05 ± 0.27 and -3.53 ± 0.32.
For the sequence UGCUAGCAAUAUUACGACGG, the “self-splicing fitness (ln)” value is, setting by setting: (30 °C) -0.768 ± 0.16; (37 °C) -0.44 ± 0.18.
The matching figures for UGCUAGCAAUAUUACGAGCG: -2.86 ± 0.2 and -0.792 ± 0.17.
With UGCUAGCAAUAUUACGAUCC, the “self-splicing fitness (ln)” value (30 °C) was -0.317 ± 0.41.
For the sequence UGCUAGCAAUAUUACGAUUG, the “self-splicing fitness (ln)” value runs as follows: (30 °C) -1.16 ± 0.13; (37 °C) -1.51 ± 0.14.
